From publication PMC6908751 (Cell host & microbe, 2019)

Target: Sh2 N9 NA ectodomain plus stalk with His6-tag (tetramer) (influenza A virus A/Shanghai/02/2013 …)
Experiment: cryo-EM structure

Row | Binder | stoichiometry N | binding result
1 | human anti-N9 antibody NA-22 Fab (Fab, V domains shown) VH: QVQLVESGGGVVQPGRSLRLSCAASGFTFNNYGMHWVRQAPGKGLEWVAVISYDGSNKYYADSVKGRFTISRDNSKNTLYLQMNSLRAEDTAVYYCAKDKRFITMILVGPFDYWGQGTLVTVSS VL: QSVLTQPASVSGSPGQSITISCTGTSSDVGGYNYVSWHQQHPGKAPKLMIYDVSNRPSGVSNRFSGSKSGNTASLTISGLQTEDEADYYCSSYTSSTTNVFGTGTKVTVL | 4 Fabs per NA tetramer | –
2 | human anti-N9 antibody NA-73 Fab (Fab, V domains shown) VH: QVQLEESGPGLVKPSETLSLTCTVSGYTISSGYYWGWIRQPPGKGLEWIGCNNHRGSSYYNPSLKSRVIISVDTTKNKFSLKLSSVTAADTAVYYCARDPSFWSSTSRTSPYYYGMDVWGQGTLVTVSS VL: not shown | 1 Fab per NA protomer | –
3 | human anti-N9 antibody NA-80 Fab (Fab, V domains shown) VH: QVQLVQSGAEVKRPGASVKVSCKASGYTFISYGISWVRQAPGQGLEWMGWISAYNGNTNYAQNLQGRVTMTTDTSTSTAYMELRSLRSDDTAVYYCARVIPGTAVDYFDYWGQGTLVTVSS VL: DIVMTQSPSSLSASVGDRVTISCRASQSISSYLNWYQQKPGKAPKLLIYAASSLQSGVPSRFSGSASGTDFTLTISSLQPEDFATYYCQQSYSAPFTFGPGTKVDIE | 1 Fab per NA protomer | –
4 | human anti-N9 antibody NA-63 Fab (Fab, V domains shown) VH: EVQLVESGGGLVQPGGSLRLSCAASGFTFSSYWMSWVRQAPGKGLDWVANIKQDGSEKYYVDSVKGRFTISRHNAKNSLYLQMNSLRAEDTAVYYCASSTAAEFFDYWGQGTLVTVSS VL: DIVMTQSPSSLSASVGDRVTITCRASQSISTYLNWYQQKPGKAPKLLIYAASSLQGGVPSRFSGSGSGTDFTLTISSLQPEDFATYYCQQSYSTPLYTFGQGTKLEIK | – | binds
